In publication PMC3260217:

Biological target: NP wt (Influenza A virus H1N1 (A/WSN/33), UniProt P15682 1-498)
Assay: SPR
Conditions: protein: recombinant; tags: C-terminal 6xHis; label: 5'-biotin; single strand

UUUGUUACACACACACACGCUGUG (ssRNA) [Flu1 RNA 24-mer]
Kd: 41 ± 7 nM
